Laboratory results as given in patent US20150218239A1 (ARGENX, published 2015).

T1: murine CD16-2 (Sino Biological Inc., 50036-M27H-B) (murine, UniProt A0A0B4J1G0 21-203, Probably biotinylated on a vendor tag (suffix -B); not given)
T1 construct: Bought reagent, used in 'a similar experimental procedure' to the hCD16a ELISA; also called mCD16-2
T1 sequence: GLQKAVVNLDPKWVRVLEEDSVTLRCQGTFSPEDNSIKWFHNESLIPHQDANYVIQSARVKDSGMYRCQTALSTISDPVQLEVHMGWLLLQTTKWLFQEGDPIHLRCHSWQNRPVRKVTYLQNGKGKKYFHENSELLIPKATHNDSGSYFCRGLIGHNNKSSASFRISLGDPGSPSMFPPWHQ


Key:
[1] = target: T1, murine CD16-2 (Sino Biological Inc., …); assay: ELISA on murine CD16-2, similar procedure to the hCD16a ELISA
Protocol: (§1) Specifically, a Maxisorp plate was coated with 100 ng/well of Neutravidin Biotin-binding Protein (ThermoScientific, 31000) and incubated overnight at 4° C. The following day, the plate was blocked with PBS+1% casein for 2 hours at room temperature. […] Binding to hCD16a was detected using an HRP-conjugated polyclonal goat anti-human Fc antibody (Jackson ImmunoResearch, 109-035-008) (incubation 1 hour at RT, dilution 1/50,000 in PBS+0.1% casein), followed by addition of […] room temperature-equilibrated TMB (SDT-reagents #s TMB). Plates were incubated for 10 minutes prior to addition of 100 μl 0.5N H₂SO₄ and OD450 nm measurement. EC50 values were determined using GraphPad Prism software.
Using a similar experimental procedure as described above, the binding affinity for murine CD16-2 (Sino Biological Inc., 50036-M27H-B) was determined.

[2] = target: T2, biotinylated hCD16a (Sino Biological Inc., 10389-H27H1-B) (human, UniProt P08637 17-208, biotinylated); assay: ELISA on biotinylated hCD16a captured on neutravidin; anti-human Fc-HRP detection
T2 construct: Bought reagent, captured on a neutravidin-coated plate; also called human CD16a
Protocol: as §1

T2 sequence (P08637 17-208 limits assumed): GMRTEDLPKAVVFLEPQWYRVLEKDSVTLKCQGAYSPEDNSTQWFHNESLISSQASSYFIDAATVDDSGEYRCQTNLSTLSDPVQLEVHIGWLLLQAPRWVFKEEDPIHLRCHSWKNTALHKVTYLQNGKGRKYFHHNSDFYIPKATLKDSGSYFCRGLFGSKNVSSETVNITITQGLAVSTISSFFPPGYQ

| Binder | EC50 [1] [nM] | EC50 [2] [nM] | fold increase in affinity over fucosylated Fc-Abdeg [2] [fold] |
| --- | --- | --- | --- |
| Fc-Abdeg-POT (other, afucosylated N-linked glycan (afucosylated form of Fc-Abdeg), also called afucosylated form of Fc-Abdeg; afucosylated variant) DKTHTCPPCPAPELLGGPSVFLFPPKPKDTLYITREPEVTCVVVDVSHEDPEVKFNWYVDGVEVHNAKTKPREEQYNSTYRVVSVLTVLHQDWLNGKEYKCKVSNKALPAPIEKTISKAKGQPREPQVYTLPPSRDELTKNQVSLTCLVKGFYPSDIAVEWESNGQPENNYKTTPPVLDSDGSFFLYSKLTVDKSRWQQGNVFSCSVMHEALKFHYTQKSLSLSPGK | 11 | 13 | > 30 |
| Fc-Abdeg-S239D/I332E (other, Fc-Abdeg variant) DKTHTCPPCPAPELLGGPDVFLFPPKPKDTLYITREPEVTCVVVDVSHEDPEVKFNWYVDGVEVHNAKTKPREEQYNSTYRVVSVLTVLHQDWLNGKEYKCKVSNKALPAPEEKTISKAKGQPREPQVYTLPPSRDELTKNQVSLTCLVKGFYPSDIAVEWESNGQPENNYKTTPPVLDSDGSFFLYSKLTVDKSRWQQGNVFSCSVMHEALKFHYTQKSLSLSPGK |  | 6 |  |
